Values quoted from earlier work in patent US20230192878A1, “METHODS, THERAPIES AND USES FOR TREATING CANCER” (PFIZER INC., priority 2020, published 2023).
pKd: −log10 of the molar value.

Molecular target: T1, BCMA (Homo sapiens, UniProt Q02223)
T1 sequence (Q02223 1-184): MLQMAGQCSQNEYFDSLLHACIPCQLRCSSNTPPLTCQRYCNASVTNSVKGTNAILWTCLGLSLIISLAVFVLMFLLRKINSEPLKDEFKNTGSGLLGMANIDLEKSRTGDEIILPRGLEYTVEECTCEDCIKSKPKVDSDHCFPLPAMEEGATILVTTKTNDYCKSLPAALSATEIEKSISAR
Conditions: binding to BCMA; read-out: affinity; cited from earlier work

In the case of “APRIL: a proliferation-inducing ligand, ligand of BCMA”, the pKd is given as 7.80.
In the case of “BAFF: B-cell activation factor, ligand of BCMA”, the pKd is given as 6.00.
